To fix the notation:
B1: Hu147-22wk (antibody, human IgG1, kappa, V domains shown)
VH: EVQLVESGGGLVQPGGSLRLSCAASGFTFNTYAMNWVRQAPGKGLEWVARIRTKSNNYATYYADSVKDRFTISRDDSKNSLYLQMNSLKTEDTAVYYCVETGFAYWDQGTLVTVSS
VL: EIVLTQSPATLSLSPGERATLSCSASSSVSYMHWFQQKPGQSPKLLIYSTSNLASGIPARFSGSGSGTDYTLTISSLEPEDFAVYYCQQRSSYPLTFGQGTKLEIKR
notes: humanized from mab147, Hu147-VH2/VL2; IgG1/kappa
B2: Hu147-12wk (antibody, human IgG1, kappa, V domains shown)
VH: B1 VH with N30S, A49G
VL: B1 VL
notes: humanized from mab147, Hu147-VH1/VL2; IgG1/kappa
B3: Hu147-24wk (antibody, human IgG1, kappa, V domains shown)
VH: B1 VH
VL: DIQMTQSPSSLSASVGDRVTITCSASSSVSYMHWFQQKPGKSPKLLIYSTSNLASGVPSRFSGSGSGTDYTLTISSLQPEDFATYYCQQRSSYPLTFGQGTKLEIKR
notes: humanized from mab147, Hu147-VH2/VL4; IgG1/kappa
B4: Hu147-23wk (antibody, human IgG1, kappa, V domains shown)
VH: B1 VH
VL: B1 VL with L46W, I57V
notes: humanized from mab147, Hu147-VH2/VL3; IgG1/kappa
B5: Hu147-31wk (antibody, human IgG1, kappa, V domains shown)
VH: B1 VH with T28S, K78E, N79S
VL: B1 VL with K44R
notes: humanized from mab147, Hu147-VH3/VL1; IgG1/kappa
B6: Hu147-32wk (antibody, human IgG1, kappa, V domains shown)
VH: B1 VH with T28S, K78E, N79S
VL: B1 VL
notes: humanized from mab147, Hu147-VH3/VL2; IgG1/kappa
B7: Hu147-15wk (antibody, human IgG1, kappa, V domains shown)
VH: B1 VH with N30S, A49G
VL: B3 VL with M4L, L46W
notes: humanized from mab147, Hu147-VH1/VL5; IgG1/kappa
B8: Hu147-13wk (antibody, human IgG1, kappa, V domains shown)
VH: B1 VH with N30S, A49G
VL: B1 VL with L46W, I57V
notes: humanized from mab147, Hu147-VH1/VL3; IgG1/kappa
B9: Hu147-33wk (antibody, human IgG1, kappa, V domains shown)
VH: B1 VH with T28S, K78E, N79S
VL: B1 VL with L46W, I57V
notes: humanized from mab147, Hu147-VH3/VL3; IgG1/kappa
B10: Hu147-14wk (antibody, human IgG1, kappa, V domains shown)
VH: B1 VH with N30S, A49G
VL: B3 VL
notes: humanized from mab147, Hu147-VH1/VL4; IgG1/kappa
B11: Hu147-34wk (antibody, human IgG1, kappa, V domains shown)
VH: B1 VH with T28S, K78E, N79S
VL: B3 VL
notes: humanized from mab147, Hu147-VH3/VL4; IgG1/kappa
B12: Hu147-11wk (antibody, human IgG1, kappa, V domains shown)
VH: B1 VH with N30S, A49G
VL: B1 VL with K44R
notes: humanized from mab147, Hu147-VH1/VL1
B13: Hu147-21wk (antibody, human IgG1, kappa, V domains shown)
VH: B1 VH
VL: B1 VL with K44R
notes: humanized from mab147, Hu147-VH2/VL1; IgG1/kappa
B14: Hu164-67wl (antibody, human IgG1, lambda)
heavy: not shown
light: ETVVTQEPSLTVSPGGTVTLTCRSSIGAVTTSNYANWVQQKPGQAFRGLIGGTSNRAPWTPARFSGSLLGGKAALTLSGVQPEDEAEYYCALWYSTHYVFGGGTKLTVLGQPKANPTVTLFPPSSEELQANKATLVCLISDFYPGAVTVAWKADGSPVKAGVETTKPSKQSNNKYAASSYLSLTPEQWKSHRSYSCQVTHEGSTVEKTVAPTEC
notes: humanized from mab164, Hu164-VH6/VL7; IgG1/lambda
B15: Hu164-67yl (antibody, human IgG1, lambda)
heavy: EVTLKESGPVLVKPTETLTLTCTVSGFSLSTFGVHWIRQPPGKGLEWLGVIWRRGGTDYNAAFMSRLTISKDTSKSQVVFTMTNMDPVDTATYYCARDGGFDYWGQGTTVTVSSASTKGPSVFPLAPSSKSTSGGTAALGCLVKDYFPEPVTVSWNSGALTSGVHTFPAVLQSSGLYSLSSVVTVPSSSLGTQTYICNVNHKPSNTKVDKKVEPKSCDKTHTCPPCPAPELLGGPSVFLFPPKPKDTLYITREPEVTCVVVDVSHEDPEVKFNWYVDGVEVHNAKTKPREEQYNSTYRVVSVLTVLHQDWLNGKEYKCKVSNKALPAPIEKTISKAKGQPREPQVYTLPPSRDELTKNQVSLTCLVKGFYPSDIAVEWESNGQPENNYKTTPPVLDSDGSFFLYSKLTVDKSRWQQGNVFSCSVMHEALHNHYTQKSLSLSPGK
light: B14 light
notes: humanized from mab164, Hu164-VH6/VL7
B16: CTGF antibody mAb1 (antibody, V domains shown)
VH: EGQLVQSGGGLVHPGGSLRLSCAGSGFTFSSYGMHWVRQAPGKGLEWVSGIGTGGGTYSTDSVKGRFTISRDNAKNSLYLQMNSLRAEDMAVYYCARGDYYGSGSFFDCWGQGTLVTVSS
VL: DIQMTQSPSSLSASVGDRVTITCRASQGISSWLAWYQQKPEKAPKSLIYAASSLQSGVPSRFSGSGSGTDFTLTISSLQPEDFATYYCQQYNSYPPTFGQGTKLEIKR
notes: positive control, from CN1829740B; also called pamrevlumab; FG-3019

Residue numbers refer to the chain shown, from its start.

The target in this experiment is T1, human CTGF (antigen of the Biacore assays) (human, UniProt P29279 27-349, limits assumed).
T1 construct: also called human CTGF protein
T1 sequence: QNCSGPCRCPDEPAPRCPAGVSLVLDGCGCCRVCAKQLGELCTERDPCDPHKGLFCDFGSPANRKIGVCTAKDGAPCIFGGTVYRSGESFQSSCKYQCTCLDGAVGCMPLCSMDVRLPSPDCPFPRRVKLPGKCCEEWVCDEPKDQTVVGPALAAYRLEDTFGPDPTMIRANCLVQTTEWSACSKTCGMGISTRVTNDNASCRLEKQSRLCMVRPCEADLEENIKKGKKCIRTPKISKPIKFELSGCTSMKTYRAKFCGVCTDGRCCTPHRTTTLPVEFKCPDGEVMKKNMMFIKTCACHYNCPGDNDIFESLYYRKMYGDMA
Kind of experiment: SPR (Biacore T200), human CTGF on CM5 chip, antibody 150 ug/ml then 50 nM TGF-β1 as competitor. As for the experimental part: The antigen human CTGF was firstly fixed onto a CM5 biosensor chip (Cat. #BR-1005-30, GE) by amino coupling at a level of 1500 RU. Then high-concentration CTGF antibody (150 μg/ml) was allowed to flow over the surface of the chip for 150 s, and 50 nM TGF-β1 protein was injected for 120 s. The reaction signals were detected in real time using a Biacore T200 instrument to obtain an association and dissociation curve. After dissociation was complete in each test cycle, the biosensor chip was washed thoroughly and regenerated with a regeneration buffer.
The data obtained from the experiment were statistically analyzed using GE Biacore T200 Evaluation version 3.0 software.
Blocking efficiency=[1−(sample response value/blank control response value)]×100%.
In general terms: In SPR one partner is held on a chip, and binding of the other changes the refractive index at the surface.
B1: the “Percent function blocking (%)” value came out at 52.3%.

Consider B2, for which the “Percent function blocking (%)” value came to 51.6%.

B3: the “Percent function blocking (%)” value came to 52.8%.

With B4, the “Percent function blocking (%)” value was determined as 54.6%.

Consider B5, for which the “Percent function blocking (%)” value was 55%.

In the case of B6, the “Percent function blocking (%)” value was found to be 55.2%.

Regarding B7, the “Percent function blocking (%)” value amounted to 52.3%.

Consider B8, for which the “Percent function blocking (%)” value stood at 53.3%.

Consider B9, for which the “Percent function blocking (%)” value came to 57.3%.

As to B10, the “Percent function blocking (%)” value was determined as 50.9%.

On to B11, for which the “Percent function blocking (%)” value was 56.2%.

With B12, the “Percent function blocking (%)” value was 50.8%.

Consider B13, for which the “Percent function blocking (%)” value is 51.6%.

Regarding B14, the “Percent function blocking (%)” value amounted to 55.5%.

For B15, the “Percent function blocking (%)” value was 53.9%.

As to B16, the “Percent function blocking (%)” value was 41.3%.

These data come from patent US20230416352A1 (JIANGSU HENGRUI PHARMACEUTICALS, published 2023).
